Laboratory results reported in patent US20230322953A1 (HARBOUR BIOMED SHANGHAI, published 2023).

Columns and labels:
[1] = molecular target: T1, human CTLA4 on cells (CHO-K1/hCTLA4; HEK293/hCTLA4; 293F-hCTLA4) (human, UniProt P16410 36-223); assay: FACS, CHO-K1/hCTLA4 cells (Test 2)
T1 construct: whole, on cells

[2] = molecular target: T2, human PD-L1 on cells (CHO-K1/hPDL1; MDA-MB-231) (human, UniProt Q9NZQ7 19-290); assay: FACS, CHO-K1/hPDL1 cells (Experiment 2)
T2 construct: whole, on cells

[3] = molecular target: T2, human PD-L1 on cells (CHO-K1/hPDL1; …); assay: competition FACS: biotinylated PD-1 to CHO-K1/hPDL1 cells
[4] = molecular target: T1, human CTLA4 on cells (CHO-K1/hCTLA4; …); assay: competition FACS: biotinylated B7-1-Fc to CHO-K1/hCTLA4 cells (Test 2)
[5] = molecular target: T2, human PD-L1 on cells (CHO-K1/hPDL1; …); assay: competition FACS: biotinylated PD-1 to CHO-K1/hPDL1 cells (Experiment 2)
[6] = molecular target: T3, human PD-L1 (programmed death ligand 1) (human, UniProt Q9NZQ7 19-290); assay: flow cytometry (FACS) on CHO-K1/hPDL1 cells, Experiment 3
T3 construct: whole, on cells; also called hPDL1; CD274

[7] = molecular target: T4, human CTLA4 on CHO-K1/hCTLA4 cells (human, UniProt P16410 36-223); assay: flow cytometry on CHO-K1/hCTLA4 cells, Experiment 1
T4 construct: whole, on cells; CHO-K1 cell line highly expressing human CTLA4; also called human CTLA4 cell
T4 sequence (P16410 36-223): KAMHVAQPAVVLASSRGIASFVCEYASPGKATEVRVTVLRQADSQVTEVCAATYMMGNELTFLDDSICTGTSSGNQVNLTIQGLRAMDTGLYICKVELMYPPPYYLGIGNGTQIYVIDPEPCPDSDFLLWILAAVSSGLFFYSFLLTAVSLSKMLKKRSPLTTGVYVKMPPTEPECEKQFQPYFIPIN

T3 sequence (Q9NZQ7 19-290): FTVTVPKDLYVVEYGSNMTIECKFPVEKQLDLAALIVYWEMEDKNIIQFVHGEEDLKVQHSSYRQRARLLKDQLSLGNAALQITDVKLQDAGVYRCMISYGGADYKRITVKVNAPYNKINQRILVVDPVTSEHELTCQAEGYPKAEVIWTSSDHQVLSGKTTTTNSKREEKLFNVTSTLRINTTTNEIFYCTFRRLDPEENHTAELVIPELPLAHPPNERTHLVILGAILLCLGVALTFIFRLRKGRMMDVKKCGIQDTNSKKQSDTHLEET
T2 sequence (Q9NZQ7 19-290): as above
T1 sequence (P16410 36-223): as the sequence (P16410 36-223) above

Maximum MFI [1] [MFI]	EC50 [2] [nM]	Maximum MFI [2] [MFI]	fold poorer IC50 than the parent monoclonal antibody [3] [fold]	IC50 [4] [nM]	Maximum inhibition rate (%) [4] [%]	IC50 [5] [nM]	Maximum inhibition rate (%) [5] [%]	EC50 [7] [nM]	Maximum MFI [7] [MFI]	EC50 [1] [nM]	Binder	EC50 [6] [nM]	Maximum MFI [6] [MFI]
355	1.51	11200	4 to 5	98.3	95	1.12	81.6				PR001609 (bispecific antibody, human IgG1, kappa, PD-L1×CTLA4, structure 11 Fab-Fc-VH, knob/hole) light: DIQMTQSPSTLSASVGDRVTVTCRASQSIYIWLAWYQQKPGKAPNLLIYKASSLETGVPSRFSGSGSGTEFTLTISSLQPDDFATYYCQQYYGSSRTFGQGTKVEIKRTVAAPSVFIFPPSDEQLKSGTASVVCLLNNFYPREAKVQWKVDNALQSGNSQESVTEQDSKDSTYSLSSTLTLSKADYEKHKVYACEVTHQGLSSPVTKSFNRGEC heavy: not shown EVQLVESGGGLIQPGGSLRLSCAVSGFTVSKNYMSWVRQAPGKGLEWVSVVYSGGSKTYADSVKGRFTISRDNSKNTLYLQMNSLRAEDTAVYYCARAVPHSPSSFDIWGQGTMVTVSSEPKSSDKTHTCPPCPAPELLGGPSVFLFPPKPKDTLMISRTPEVTCVVVDVSHEDPEVKFNWYVDGVEVHNAKTKPREEQYNSTYRVVSVLTVLHQDWLNGKEYKCKVSNKALPAPIEKTISKAKGQPREPQVCTLPPSREEMTKNQVSLSCAVKGFYPSDIAVEWESNGQPENNYKTTPPVLDSDGSFFLVSKLTVDKSRWQQGNVFSCSVMHEALHNHYTQKSLSLSPGK		
											PR007163, PD-L1×4-1BB bispecific antibody molecule of Fab-HCAb symmetric structure (bispecific antibody, human IgG1, Structure 2 Fab(CH1)-VH-Fc; Fab of PR000265, VH of PR001760; no first linker, human IgG1 hinge (C220S); human IgG1 (L234A, L235A)) light: DIQMTQSPSTLSASVGDRVTVTCRASQSIYIWLAWYQQKPGKAPNLLIYKASSLETGVPSRFSGSGSGTEFTLTISSLQPDDFATYYCQQYYGSSRTFGQGTKVEIKRTVAAPSVFIFPPSDEQLKSGTASVVCLLNNFYPREAKVQWKVDNALQSGNSQESVTEQDSKDSTYSLSSTLTLSKADYEKHKVYACEVTHQGLSSPVTKSFNRGEC not shown	2.26	51300
								4.68	151		HER2xCTLA4 bispecific antibody molecule PR000916 (bispecific antibody, human IgG1, kappa, Structure 11 Fab-Fc-VH (bivalent asymmetric); PR000210 Fab (normal), one PR000184 VH) light: not shown heavy: not shown EVQLVESGGGLIQPGGSLRLSCAVSGFTVSKNYMSWVRQAPGKGLEWVSVVYSGGSKTYADSVKGRFTISRDNSKNTLYLQMNSLRAEDTAVYYCARAVPHSPSSFDIWGQGTMVTVSSEPKSSDKTHTCPPCPAPELLGGPSVFLFPPKPKDTLMISRTPEVTCVVVDVSHEDPEVKFNWYVDGVEVHNAKTKPREEQYNSTYRVVSVLTVLHQDWLNGKEYKCKVSNKALPAPIEKTISKAKGQPREPQVCTLPPSREEMTKNQVSLSCAVKGFYPSDIAVEWESNGQPENNYKTTPPVLDSDGSFFLVSKLTVDKSRWQQGNVFSCSVMHEALHNHYTQKSLSLSPGK		
468	1.37	11100	4 to 5	96.6	61.3	1.23	80.2				PR001610 (bispecific antibody, human IgG1, kappa, PD-L1×CTLA4, structure 11, knob/hole, DE) light: DIQMTQSPSTLSASVGDRVTVTCRASQSIYIWLAWYQQKPGKAPNLLIYKASSLETGVPSRFSGSGSGTEFTLTISSLQPDDFATYYCQQYYGSSRTFGQGTKVEIKRTVAAPSVFIFPPSDEQLKSGTASVVCLLNNFYPREAKVQWKVDNALQSGNSQESVTEQDSKDSTYSLSSTLTLSKADYEKHKVYACEVTHQGLSSPVTKSFNRGEC heavy: not shown EVQLVESGGGLIQPGGSLRLSCAVSGFTVSKNYMSWVRQAPGKGLEWVSVVYSGGSKTYADSVKGRFTISRDNSKNTLYLQMNSLRAEDTAVYYCARAVPHSPSSFDIWGQGTMVTVSSEPKSSDKTHTCPPCPAPELLGGPDVFLFPPKPKDTLMISRTPEVTCVVVDVSHEDPEVKFNWYVDGVEVHNAKTKPREEQYNSTYRVVSVLTVLHQDWLNGKEYKCKVSNKALPAPEEKTISKAKGQPREPQVCTLPPSREEMTKNQVSLSCAVKGFYPSDIAVEWESNGQPENNYKTTPPVLDSDGSFFLVSKLTVDKSRWQQGNVFSCSVMHEALHNHYTQKSLSLSPGK		
								9.8	142		HER2xCTLA4 bispecific antibody molecule PR000917 (bispecific antibody, human IgG1, kappa, Structure 11 Fab-Fc-VH; PR000210 Fab (normal), one PR000184 VH; DE: S239D, I332E) light: not shown heavy: not shown EVQLVESGGGLIQPGGSLRLSCAVSGFTVSKNYMSWVRQAPGKGLEWVSVVYSGGSKTYADSVKGRFTISRDNSKNTLYLQMNSLRAEDTAVYYCARAVPHSPSSFDIWGQGTMVTVSSEPKSSDKTHTCPPCPAPELLGGPDVFLFPPKPKDTLMISRTPEVTCVVVDVSHEDPEVKFNWYVDGVEVHNAKTKPREEQYNSTYRVVSVLTVLHQDWLNGKEYKCKVSNKALPAPEEKTISKAKGQPREPQVCTLPPSREEMTKNQVSLSCAVKGFYPSDIAVEWESNGQPENNYKTTPPVLDSDGSFFLVSKLTVDKSRWQQGNVFSCSVMHEALHNHYTQKSLSLSPGK		
											PR007164, PD-L1×4-1BB bispecific antibody molecule of Fab-HCAb symmetric structure (bispecific antibody, human IgG1, Structure 1 Fab(CL)-VH-Fc; Fab of PR000265, VH of PR001760; no first linker, human IgG1 hinge (C220S); human IgG1 (L234A, L235A)) chain 1: EVQLVESGGGLVQPGGSLRLSCAASGFTFSSYWMSWVRQAPGKGLEWVANIKQEGSEKYYVDSVKGRFTISRDNAKNSLYLQMNSLRAEDTAVYYCARDRAVAGAFDIWGQGTMVTVSSASTKGPSVFPLAPSSKSTSGGTAALGCLVKDYFPEPVTVSWNSGALTSGVHTFPAVLQSSGLYSLSSVVTVPSSSLGTQTYICNVNHKPSNTKVDKKVEPKSC chain 2: not shown	1.93	51400
415	2.41	5880	4 to 6	3.79	100	1.74	81.7			5.08	PR001575 (bispecific antibody, human IgG1, kappa, PD-L1×CTLA4, structure 9) chain 1: EVQLVESGGGLIQPGGSLRLSCAVSGFTVSKNYMSWVRQAPGKGLEWVSVVYSGGSKTYADSVKGRFTISRDNSKNTLYLQMNSLRAEDTAVYYCARAVPHSPSSFDIWGQGTMVTVSSKLEPKSSDKTHTPPPPPRTDIQMTQSPSTLSASVGDRVTVTCRASQSIYIWLAWYQQKPGKAPNLLIYKASSLETGVPSRFSGSGSGTEFTLTISSLQPDDFATYYCQQYYGSSRTFGQGTKVEIKRTVAAPSVFIFPPSDEQLKSGTASVVCLLNNFYPREAKVQWKVDNALQSGNSQESVTEQDSKDSTYSLSSTLTLSKADYEKHKVYACEVTHQGLSSPVTKSFNRGEC chain 2: not shown		
434	1.07	5830	4 to 6	2.98	100	1.4	80.7			2.91	PR001572 (bispecific antibody, human IgG1, kappa, PD-L1×CTLA4, structure 9 2×VH-IgG) chain 1: EVQLVESGGGLIQPGGSLRLSCAVSGFTVSKNYMSWVRQAPGKGLEWVSVVYSGGSKTYADSVKGRFTISRDNSKNTLYLQMNSLRAEDTAVYYCARAVPHSPSSFDIWGQGTMVTVSSKLEPKSSDKTHTPPPPPRTDIQMTQSPSTLSASVGDRVTVTCRASQSIYIWLAWYQQKPGKAPNLLIYKASSLETGVPSRFSGSGSGTEFTLTISSLQPDDFATYYCQQYYGSSRTFGQGTKVEIKRTVAAPSVFIFPPSDEQLKSGTASVVCLLNNFYPREAKVQWKVDNALQSGNSQESVTEQDSKDSTYSLSSTLTLSKADYEKHKVYACEVTHQGLSSPVTKSFNRGEC chain 2: not shown		
